Patent US20240199757A1 (UNIVERSITY OF CHICAGO, published 2024)

Experiments:
[1] = target: T1, Full-length murine NT5E (recombinant) (murine, UniProt Q61503 29-552); test: SPR, His-captured NT5E, 1 mM ATP; SPR, 1 mM ATP
T1 construct: also called mNT5E
T1 sequence: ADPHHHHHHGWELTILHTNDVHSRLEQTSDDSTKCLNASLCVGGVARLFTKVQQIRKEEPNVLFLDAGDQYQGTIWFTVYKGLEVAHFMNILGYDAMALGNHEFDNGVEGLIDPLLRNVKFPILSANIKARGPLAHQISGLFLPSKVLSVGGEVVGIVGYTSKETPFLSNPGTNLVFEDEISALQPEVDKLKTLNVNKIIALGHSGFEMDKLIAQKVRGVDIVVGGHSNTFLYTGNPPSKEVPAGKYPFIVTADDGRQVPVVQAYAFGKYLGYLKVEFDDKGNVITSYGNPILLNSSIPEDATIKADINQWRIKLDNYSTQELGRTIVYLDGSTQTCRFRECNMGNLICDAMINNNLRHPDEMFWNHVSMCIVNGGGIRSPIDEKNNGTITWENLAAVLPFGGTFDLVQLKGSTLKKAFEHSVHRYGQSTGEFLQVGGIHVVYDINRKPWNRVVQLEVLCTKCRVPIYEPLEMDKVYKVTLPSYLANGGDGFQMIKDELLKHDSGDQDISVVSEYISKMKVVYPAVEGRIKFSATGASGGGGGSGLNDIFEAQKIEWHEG
Method: All SPR experiments were performed at 25° C. using MASS-1 (Bruker) instrument. hNT5E, mNT5E and cNT5E were immobilized onto a nitrilotriacetic acid (NTA) sensor chip via His-tag. For kinetic experiments, after ligand immobilization, 2-fold serial dilutions of the Fabs were injected. After double-reference subtraction data were analyzed with BiaEvaluation (GE Healthcare) or Sierra Analyser (Bruker) software. The experiments were carried in buffers in presence and absence of 1 mM ATP to compare the kinetic parameters of the Fabs binding to closed and open form of NT5E.

[2] = target: T2, human NT5E expressed on MDA-MB-231 cells (human, UniProt P21589 27-549); test: flow cytometry on MDA-MB-231 cells, 1 mM ATP
T2 construct: whole, on cells; also called NT5E-expressing MDA-MB-231 cells; CD73
T2 sequence (looked up): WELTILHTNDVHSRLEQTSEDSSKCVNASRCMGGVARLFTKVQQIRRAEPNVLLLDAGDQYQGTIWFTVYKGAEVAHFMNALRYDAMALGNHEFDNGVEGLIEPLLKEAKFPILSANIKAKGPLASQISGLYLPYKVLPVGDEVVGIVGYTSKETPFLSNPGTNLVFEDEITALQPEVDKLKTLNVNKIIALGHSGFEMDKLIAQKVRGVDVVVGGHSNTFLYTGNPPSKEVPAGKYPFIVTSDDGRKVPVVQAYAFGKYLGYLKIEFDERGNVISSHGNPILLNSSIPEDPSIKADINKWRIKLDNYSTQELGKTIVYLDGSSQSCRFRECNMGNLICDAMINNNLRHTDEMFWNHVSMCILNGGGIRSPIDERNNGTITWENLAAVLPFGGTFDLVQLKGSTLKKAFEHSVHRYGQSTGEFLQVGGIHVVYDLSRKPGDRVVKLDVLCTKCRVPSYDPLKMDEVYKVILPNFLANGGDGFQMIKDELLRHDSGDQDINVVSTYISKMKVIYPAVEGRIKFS
Method: Flow cytometry analysis of antibodies binding to human NT5E expressed on MDA-MB-231 cells in ATP-free condition (black) or in 1 mM ATP (red). Top panel: (left) 1780 Fab and (right) 1780 IgG titrations. […] Binding was measured at the indicated range of antibody concentrations and is expressed as mean±st. dev of median fluorescence intensity (MFI) of 1-2 replicates. Data were analyzed using OriginLab, and EC₅₀ values are shown next to the fitted curves.
Human MDA-MB-231 cells and murine 4T1 cells were grown to 90% confluency, detached with 5 mM EDTA for 15 min at 37° C. and then resuspended in 37° C. lx PBS (#10010031, Gibco) supplemented with 1% FBS and 1OpM ZnCl2. Separate working buffers (WB) of PBS and 1% FBS with or without fixed nucleotide concentrations were used throughout all washing steps to maintain constant condition. In 96-well plates (#3799, Costar), 0.2×10⁶ cells were added per well. The plates were spun at 500×g for 5 min and the supernatant was removed. Anti-NT5E antibodies were diluted to the desired concentration in 100 μL WB, added to the cells and the plates were incubated for 20 min at 37° C. Plates were spun and cells were washed twice with WB then spun a second time. Cells were stained with 100 μL of secondary antibody (Alexa Fluor 647 AffiniPure Goat Anti-Human IgG, F(ab′)2 fragment specific, #109-605-006, Jackson, 1:200) dilution and plates were incubated for 20 min at 37° C. Cells were washed twice with WB then fixed on ice with WB supplemented with 0.5% PFA. Fixing solution was removed by centrifugation and cells were resuspended in cold 1× PBS. Samples were analyzed by flow cytometry using CytoFLEX (Beckman Coulter) and mean fluorescence intensity (MFI) data was extracted using FlowJo software. Resulting binding data was plotted using OriginLab.

B1: 1789 Fab (Fab, V domains shown)
VH: EVQLVESGGGLVQPGGSLRLSCAASGFNVSYSSIHWVRQAPGKGLEWVASISSSSGYTYYADSVKGRFTISADTSKNTAYLQMNSLRAEDTAVYYCARNYWGWYPFYYFAFDYWGQGTLVTV
VL: DIQMTQSPSSLSASVGDRVTITCRASQSVSSAVAWYQQKPGKAPKLLIYSASSLYSGVPSRFSGSRSGTDFTLTISSLQPEDFATYYCQQGWDYPITFGQGTKVEIKR
Kd [1]: 160 nM
koff [1]: 0.014 s⁻¹
kon [1]: 85000 M⁻¹ s⁻¹
EC50 [2]: 52 nM
